# In paper doi:10.1101/2025.11.21.687491v1:
# Columns and labels:
# Assay in all cases: purified protein
# Details in all cases: GSH co-substrate, pH 7.0, 37 °C
# [1] = substrate: CCCCC/C=C/C=C/C(CCCCCCCC(=O)O)OO
# [2] = substrate: CCCC/C=C/C(C/C=C\CCCCCCCC(=O)O)OO
# [3] = substrate: CCCCC/C=C\CC(/C=C/CCCCCCC(=O)O)OO
# [4] = substrate: CCCCCC(/C=C/C=C\CCCCCCCC(=O)O)OO
# [5] = substrate: CCCCCC(/C=C/C=C/CCCCCCCC(=O)O)OO
protein,measurement,setting,value
AtGSTU17 (U17) (Arabidopsis thaliana) (protein) MASSDVKLIGAWASPFVMRPRIALNLKSVPYEFLQETFGSKSELLLKSNPVHKKIPVLLHADKPVSESNIIVEYIDDTWSSSGPSILPSDPYDRAMARFWAAYIDEKWFVALRGFLKAGGEEEKKAVIAQLEEGNAFLEKAFIDCSKGKPFFNGDNIGYLDIALGCFLAWLRVTELAVSYKILDEAKTPSLSKWAENFCNDPAVKPVMPETAKLAEFAKKIFPKPQA,Km,[1],8.97 µM
same,kcat,[1],1.13 s⁻¹
same,Km,[2],20.4 µM
same,kcat,[2],2.71 s⁻¹
same,Km,[3],9.27 µM
same,kcat,[3],1.46 s⁻¹
same,Km,[4],10.36 µM
same,kcat,[4],2.55 s⁻¹
same,Km,[5],24.65 µM
same,kcat,[5],2.44 s⁻¹
